Substrate in the series: O=C1O[C@H]([C@@H](O)CO)C(O)=C1O
Kind of series: purified protein. The class given is biochemical, Trichoderma reesei. Conditions: 50 mM sodium acetate pH 5.0, 25 °C.

Setting [1] is: ascorbate peroxidase reaction, co-substrate H2O2, true value extrapolated over [H2O2], ping-pong, insufficient AscA saturation, treat with caution.

One may read the Km as the concentration of substrate that gives half-maximal velocity. What is called kcat is the number of substrate molecules converted per active site and unit of time at saturation.

B1: TrAA9A (Trichoderma reesei QM6a) (protein)
chain: HGHINDIVINGVWYQAYDPTTFPYESNPPIVVGWTAADLDNGFVSPDAYQNPDIICHKNATNAKGHASVKAGDTILFQWVPVPWPHPGPIVDYLANCNGDCETVDKTTLEFFKIDGVGLLSGGDPGTWASDVLISNNNTWVVKIPDNLAPGNYVLRHEIIALHSAGQANGAQNYPQCFNIAVSGSGSLQPSGVLGTDLYHATDPGVLINIYTSPLNYIIPGPTVVSGLPTSVAQGSSAATATASATVPGGGSGPTSRTTTTARTTQASSRPSSTPPATTSAPAGGPTQTLYGQCGGSGYSGPTRCAPPATCSTLNPYYAQCLN
notes: saturated with copper
For B1, under setting [1], the Michaelis-Menten constant (Km) was 140 µM and the kcat is 2.1 s⁻¹. Moreover, the K0.5 (cellulose peroxygenase reaction, priming reductant, H2O2 and BMCC present, varied: cofactor) stood at 0.1 mM.
